# Tests used:
# [1] = target: T1, LgBiT-eIF4E:SmBiT-VH-DIF^CAP-01 interaction (eIF4E cap-binding site) (Homo sapiens, UniProt P06730); assay: NanoBIT^CAP complementation assay in HEK293 cells; format: cell-based; conditions: HEK293 cells permeabilized with sub-CMC digitonin; read-out: IC50 for disruption of LgBiT-eIF4E with SmBiT-VH-DIF^CAP-01 interaction
# T1 construct: expressed in transfected cells; host or cells: HEK293
# [2] = target: T2, eIF4E cap-binding site (Homo sapiens, UniProt P06730); assay: m^7GTP^FAM competitive fluorescence anisotropy assay; conditions: read-out: Competitive Anisotropy (kd, nM) m^7GTP^FAM, non-reducing conditions, 1:1 binding model, triplicate, Kds > 20,000 denoted non-binders
# T2 construct: pET11d expression plasmid containing the full-length eIF4E clone; made in house; host or cells: E. coli Rosetta pLysS
# [3] = target: T3, eIF4E eIF4G interaction site (eIF4E:4G interface) (Homo sapiens, UniProt P06730); assay: eIF4G^FAM tracer peptide competitive fluorescence anisotropy assay; conditions: non-reducing conditions, 1:1 binding model, triplicate, Kds > 20,000 denoted non-binders, read-out: Competitive Anisotropy (kd, nM) eIF4AG^FAM
# T3 construct: pET11d expression plasmid containing the full-length eIF4E clone; made in house; host or cells: E. coli Rosetta pLysS
# [4] = target: T4, PCNA (Homo sapiens, UniProt P12004); assay: Anti-FLAG immunoprecipitation pull down with PCNA; format: cell-based; conditions: HEK293 cells
# T4 construct: endogenous in cells; host or cells: HEK293
# Description: Twenty-four hours prior to transfection or drugging, cells were seeded at a cell density of 1000.000 (HEK293) cells per well of a six-well plate (ThermoFisher Scientific). Transfections were performed using Lipofectamine 3000 (ThermoFisher Scientific) with either 2 μg or the indicated amount of plasmid vectors per well according to the manufacturer's instructions. After a 48-hour incubation period, the cell media was then removed and the cells washed with PBS saline. Cells were directly lysed in the wells with 300 μl of lysis buffer containing 20 mM Hepes pH 7.4, 100 mM NaCl, 5 mM MgCl2, 0.5% NP-40, 1 mM DTT, with protease (Roche) and phosphatase (Sigma-Aldrich) inhibitor cocktail sets added as outlined by the manufacturer's protocols. […] Beads were then washed four times with lysis buffer containing no protease or phosphatase inhibitors. This was then followed by the addition of Laemlee buffer (2×) and the beads boiled for 5 min at 95° C. Samples were centrifuged and the supernatant removed for western blot analysis.
# Confluent HEK293FT cells were used to generate lentivirus for infection of target cells. Packaging cells were transfected using calcium phosphate transfection as described below. […]
# Samples were resolved on midi or mini Tris-Glycine 4-20% gradient gels (Bio-Rad) according to the manufacturer's protocol. […] B-actin levels were measured to ensure equal loading.
# [5] = target: T5, eIF4E (Homo sapiens, UniProt P06730); assay: Direct fluorescence anisotropy titration of eIF4E against labelled tracers; conditions: 50 nM tracer, 1:1 binding model
# T5 construct: pET11d expression plasmid containing the full-length eIF4E clone; made in house; host or cells: E. coli Rosetta pLysS
# [6] = target: T6, GST-tagged eIF4E (UniProt P06730 1-217); assay: GST pull-down on glutathione beads with GST-eIF4E, Coomassie stained SDS-PAGE
# T6 construct: also called GST-eIF4E; not shown: glutathione S-transferase tag of pGEX-6P1
# [7] = target: T7, full-length human eIF4E (human, UniProt P06730 2-217); assay: anti-FLAG immunoprecipitation from transfected HEK293 cells, western blot
# T7 construct: mature; Used here for the purified full-length protein (anisotropy, ITC, crystals) and for endogenous eIF4E of HEK293 cells in pull-downs; also called cellular eIF4E
# [8] = target: T8, LgBiT-eIF4E (UniProt P06730 1-217); assay: NanoBit split-luciferase complementation in co-transfected HEK293 cells [CONT.) B]
# T8 construct: Expressed in HEK293 cells; also called LgBiT fused eIF4E; not shown: LgBiT (18-kDa NanoLuc fragment, Promega NanoBit)
# [9] = target: T7, full-length human eIF4E; assay: competitive fluorescence anisotropy, displacement of m7GTP^FAM from eIF4E
# [10] = target: T9, proliferating cell nuclear antigen (PCNA) (human, UniProt P12004 1-261); assay: anti-FLAG immunoprecipitation from transfected HEK293 cells, western blot
# T9 construct: Used here for the purified protein (anisotropy) and for endogenous PCNA of HEK293 and A375 cells in anti-FLAG pull-downs
molecule,measurement,setting,value
Cn1c[n+]([C@@H]2O[C@H](COP(=O)(O)OP(=O)([O-])O)[C@@H](O)[C@H]2O)c2nc(N)[nH]c(=O)c21 [m^7GDP],IC50,[1],34500 nM
same,Kd,[2],201 ± 25.2 nM
same,Kd,[3],> 20000 nM
m^7GTP^BIOTIN,Kd,[2],34.7 ± 4 nM
same,Kd,[3],> 20000 nM
YVRPRLPHMSQFES [scrambled],anti-FLAG pull down in complex with PCNA,[4],do not
m^7GTP^5-FAM [m^7GTP^FAM],Kd,[5],149 nM
"VH-1C5^Scrambled (designed binder, CDR3 loop of VH-1C5 scrambled; also called scrambled VH domain (negative control)) VH domain, His-tagged, purified: MSEVQLVESGGGLVQPGGSLRLSSAISGFSISSTSIDWVRQAPGKGLEWVARISPSSGSTSYADSVKGRFTISADTSKNTVYLQMNSLRAEDTAVYYTGRGSVLSVAFKPSVDSFSSFYNTNDYRGQGTLVTVSSGAA",binding result,[6],no binding
"FLAG-tagged VH-DIF^CAP-01 MA (M104A) (expressed in HEK293 cells) (designed binder, also called VH-DIF^CAP-01 mutant (M104A); VH-DIF^CAP-Cntrl; not shown: C-terminal 3x FLAG tag of the pCDNA3.1 vector) VH: MSEVQLVESGGGLVQPGGSLRLSSAISGFSISSTSIDWVRQAPGKGLEWVARISPSSGSTSYADSVKGRFTISADTSKNTVYLQMNSLRAEDTAVYYTGRPLPEAGFFTNIPAMVDYRGQGTLVTVSSGAA",binding result,[7],no binding
"SmBiT-VH-DIF^CAP-01 M104A (designed binder, also called VH-DIF^CAP-01 MA fused to smBIT; not shown: SmBiT (11-amino-acid NanoLuc fragment)) VH: MSEVQLVESGGGLVQPGGSLRLSSAISGFSISSTSIDWVRQAPGKGLEWVARISPSSGSTSYADSVKGRFTISADTSKNTVYLQMNSLRAEDTAVYYTGRPLPEAGFFTNIPAMVDYRGQGTLVTVSSGAA",binding result,[8],no binding
"SmBiT-VH-DIF^CAP-01 E103A (designed binder, also called VH-DIF^CAP-01 EA fused to smBIT; not shown: SmBiT (11-amino-acid NanoLuc fragment)) VH: MSEVQLVESGGGLVQPGGSLRLSSAISGFSISSTSIDWVRQAPGKGLEWVARISPSSGSTSYADSVKGRFTISADTSKNTVYLQMNSLRAEDTAVYYTGRPLPAMGFFTNIPAMVDYRGQGTLVTVSSGAA",binding result,[8],no binding
"VH-DiF^CAP-01^Cntrl (purified, His-tagged) (designed binder, also called VH-DIF^CAP-01 MA (M104A); not shown: C-terminal six-histidine tag from pET-22b(+)) VH: MSEVQLVESGGGLVQPGGSLRLSSAISGFSISSTSIDWVRQAPGKGLEWVARISPSSGSTSYADSVKGRFTISADTSKNTVYLQMNSLRAEDTAVYYTGRPLPEAGFFTNIPAMVDYRGQGTLVTVSSGAA",binding result,[9],no binding
VH-S4 (expressed in HEK293 cells) (designed binder) VH: MSEVQLVESGGGLVQPGGSLRLSSAISGFSISSTSIDWVRQAPGKGLEWVARISPSSGSTSYADSVKGRFTISADTSKNTVYLQMNSLRAEDTAVYYTGRVAKALNSRSPSFVVNTYSSIGFDYRGQGTLVTVSSGAA,binding result,[7],binds
"negative control M4 (FLAG-tagged, expressed in HEK293 cells) (designed binder, not shown: C-terminal 3x FLAG tag of the pCDNA3.1 vector) VH: MSEVQLVESGGGLVQPGGSLRLSSAISGFSISSTSIDWVRQAPGKGLEWVARISPSSGSTSYADSVKGRFTISADTSKNTVYLQMNSLRAEDTAVYYTGRVAKALNSSSPSFVVNTYSSFGFDYRGQGTLVTVSSGAA",binding result,[10],no binding
same,anti-FLAG pull down in complex with PCNA,[4],do not

# From patent US20250346630A1, “Engineering Peptides Using Peptide Epitope Linker Evolution” (AGENCY FOR SCIENCE, TECHNOLOGY AND RESEARCH, priority 2022, published 2025)
